Assays:
[1] = test system: CHO-BMP-2 cells; format: cell-based, Chinese hamster
Description: Cell viability was assessed at each media collection using a ViCell cell viability analyzer (Beckman) following manufacturer's instructions.

[2] = test system: CHO-hBMP-7 cells; assay: ELISA for hBMP-7 in conditioned medium from CHO-hBMP-7 cells incubated with 9DR; format: cell-based, Chinese hamster; conditions: 24 hours, nutrient control
Description: Cell lines expressing the hBMP-7 transgene were prepared as per the methods described in Example 1.
Stable CHO cell lines expressing wild type BMP-7 cDNA were seeded into single wells of 24 well plates and cultured in the presence of increasing concentrations of the furin inhibitor 9DR. The conditioned medium was collected and aliquots were assayed for the presence of […] by ELISA. The amount of proBMP-7 present in the samples was estimated by western blot. Other aliquots of conditioned media were diluted with fresh medium and added to C2C12 cells to test for in vitro osteoinductive biological activity.

[3] = test system: C2C12 cells; assay: C2C12 alkaline phosphatase assay of rhBMP after PreScission digestion; format: cell-based; conditions: for ALP activity (U/μg protein) mean ± SD: n=4
Text: Alkaline phosphatase induction in C2C12 cells: The activity of recombinant hBMP-2 protein is quantitated based upon induction of alkaline phosphatase in in vitro cultured C2C12 cells, as has been described (see, e.g., Peel et al. J Craniofacial Surg. 2003; 14:284-291 and Hu et al. Growth Factors 2004; 22:29033).
C2C12 cells (ATCC accession number CRL-1772, Manassas, Va.) are passaged before confluent and resuspended at 0.5×10^5 cells/ml in MEM supplemented with 15% heat-inactivated fetal bovine serum, antibiotics and 50 μg/ml ascorbic acid. One ml of cell suspension is seeded per well of a 24 well tissue culture plate (BD Falcon, Fisher Scientific Cat #08-772-1). An aliquot of test BMP-2 sample is added and the cultures maintained at 37° C. and 5% CO2. Test BMP-2 samples included conditioned media, purified recombinant hBMP-2 isolated from conditioned media by heparin affinity chromatography, and as a positive control a commercially available purified recombinant hBMP-2 (R&D Systems, Minneapolis, USA). Control cultures (cultured in media without added BMP-2 sample) are cultured for 2 to 7 days. Medium is changed every two days.
At harvest cultures are rinsed with Tris buffered saline (20 mM Tris, 137 mM NaCl, pH 7.4) and M-Per lysis buffer (Pierce Biotechnology Inc., Rockford, Ill., catalogue #78501) is added. The cell layer is scraped into Eppendorf tubes and sonicated. The lysate is centrifuged at 5000×g at 5° C. for 10 minutes, and the supernatant assayed for alkaline phosphatase (ALP) by monitoring the hydrolysis of nitrophenol phosphate in alkaline buffer (Sigma-Aldrich, St. Louis Mo., catalog P5899) as described in Peel et al. J Craniofacial Surg. 2003; 14:284-291 or by using the Alkaline Phosphatase detection kit, Fluorescence (Sigma-Aldrich, catalogue #APF) according to manufacturer's instructions. To normalize the ALP activity the cellular protein content in each well is also assayed using the Coomasie (Bradford) Protein Assay (Pierce Biotechnology Inc., catalogue #23200). The normalized ALP activity for each sample is calculated by dividing the ALP activity per well by the protein content per well. An activity score is calculated by dividing the ALP activity for each sample by the mean ALP activity of the control and is compared to the score achieved by the positive BMP control.
Preparation of test materials: PreScission protease was obtained from Amersham Biosciences (GE Healthcare, Buckinghamshire, U.K) and was prepared according to the manufacturer's instructions. Recombinant hBMP-2 and rhBMP-7 (both CHO cell produced) were obtained from R&D Systems. The rhBMP samples were resuspended in 4 mM HCl to a final concentration of 10 μg/ml. Bovine serum albumin (BSA) was not included so that the only substrate for the protease was BMP. The cleavage buffer was prepared (50 mM Tris-HCl, 150 mM NaCl, 1 mM EDTA, pH 7).
Assessment of activity: Samples underwent digestion at room temperature for 6 hours. Reactions were stopped by freezing at −20° C. Digestion samples were diluted in alpha MEM+15% FBS and tested for BMP activity using the C2C12 assay described in Example 1.

N=C(N)NCCC[C@@H](N)C(=O)N[C@H](CCCNC(=N)N)C(=O)N[C@H](CCCNC(=N)N)C(=O)N[C@H](CCCNC(=N)N)C(=O)N[C@H](CCCNC(=N)N)C(=O)N[C@H](CCCNC(=N)N)C(=O)N[C@H](CCCNC(=N)N)C(=O)N[C@H](CCCNC(=N)N)C(=O)N[C@H](CCCNC(=N)N)C(N)=O [9DR, nona-D-arginine amide]
effect on cell viability [1]: did not affect cell viability

N=C(N)NCCC[C@@H](N)C(=O)O [DR, D arginine]
mature hBMP-7 in medium versus medium only [2]: no difference

B1: rhBMP-7: recombinant human BMP-7, CHO cell produced, obtained from R&D Systems (protein)
chain: STGSKQRSQNRSKTPKNQEALRMANVAENSSSDQRQACKKHELYVSFRDLGWQDWIIAPEGYAAYYCEGECAFPLNSYMNATNHAIVQTLVHFINPETVPKPCCAPTQLNAISVLYFDDSSNVILKKYRNMVVRACGCH
ALP activity (U/μg protein) mean ± SD ([3]; group 2: 20 μl rhBMP (10 μg/ml), no protease, no cleavage buffer (unincubated)): 7.1 ± 0.5 U/μg protein | ALP activity (U/μg protein) mean ± SD ([3]; group 3: 20 μl rhBMP + 15 μl PreScission protease + 165 μl cleavage buffer, room temperature 6 hours): 2.9 ± 0.2 U/μg protein | ALP activity (U/μg protein) mean ± SD ([3]; group 4: 20 μl rhBMP + 180 μl cleavage buffer alone, room temperature 6 hours): 4.0 ± 0.3 U/μg protein | activity after PreScission digestion ([3]; room temperature for 6 hours): remained active | activity after PreScission digestion compared to control BMP incubated in cleavage buffer alone ([3]; room temperature for 6 hours): No loss of activity
